Measurements: US20200209227A1

Columns and labels:
Calmodulin [1] = assay: BSI; molar refractometry; row repeated for a second PDB structure used in the model
Calmodulin [2] = assay: BSI, free-solution binding signal; row repeated for a second PDB structure used in the model
Calmodulin [3] = assay: BSI; molar refractometry from the experimental phase shift at Bmax
Calmodulin [4] = assay: BSI, calmodulin-calcineurin assay, free solution
Calmodulin [5] = assay: BSI, free-solution binding signal

Substance Calcineurin (enzyme) has an Experimental Chi (RIU/M) (Calmodulin [1]) of 46100 RIU/M, a BSI ΔRIU (Calmodulin [2]) of 0.00049 RIU and an Experimental Chi (RIU/M) (Calmodulin [3]) of 46100 RIU/M. The FreeSRF (binding) signal ΔRIU (Calmodulin [4]) was 0.000441 RIU and the BSI ΔRIU (Calmodulin [5]) was 0.00049 RIU.
